Test results reported in the supplement of paper PMC10126150.
± gives the standard deviation of the averaged measurements.
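Note: ATP exposure 15 min at 22 °C before imaging.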

What follows are sequences tested on ATP (assay: switch fluorescence ratio, 500 uM ATP over buffer (Cy3 cluster intensity, sum of 5 cycles each) (fold (ratio)); higher = stronger signal-on switching upon ATP binding; sequences stand for … in TCGTCGGCAGCGTCAGATGTGTATAAGAGACAGTTTTTTTTTTTTTTTTTTTTTTTTT…TC). Settings: aptamer strand: ATP DNA aptamer (quencher-CACCTGGGGGAGTATTGCGGAGGAAGG + anchor), 100 nM annealed; ATP concentration: 500 uM.
In short: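 After annealing to 100 nM quencher-labelled ATP aptamer, Cy3-labelled switching-strand clusters on a modified Illumina MiSeq flow-cell were imaged in selection buffer. A second image followed after 15 min with 500 uM ATP at 22 °C, and five such buffer/ATP cycles were done, each separated by NaOH stripping and re-annealing. The fluorescence ratio, averaged per switch-domain sequence, is summed target-cycle over summed buffer-cycle Cy3 intensity per cluster, with clusters outside 100-1000 RFU excluded.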
With TTTTGTAGGG the switch fluorescence ratio was 0.969 ± 0.041. TTTTGTAGTG showed a switch fluorescence ratio of 0.988 ± 0.042. TTTTGTGAGG gave a switch fluorescence ratio of 1.04 ± 0.044. TTTTGTGGG was tested, and the switch fluorescence ratio was 0.966 ± 0.046. Work on TTTTGTGGGT yielded a switch fluorescence ratio of 0.986 ± 0.022. With TTTTGTTACC the switch fluorescence ratio was 1.02 ± 0.018. For TTTTGTTCAC, the switch fluorescence ratio was 1.01 ± 0.017. For TTTTGTTGAG, the switch fluorescence ratio was 1 ± 0.035. In the case of TTTTGTTGGC, the switch fluorescence ratio is reported as 1.04 ± 0.035. For TTTTGTTTA, the switch fluorescence ratio was 0.984 ± 0.022. With TTTTTAAAGG the switch fluorescence ratio was 0.976 ± 0.013. Work on TTTTTAACGT yielded a switch fluorescence ratio of 1.02 ± 0.027. TTTTTAAGCG showed a switch fluorescence ratio of 1 ± 0.023. Work on TTTTTAATAC yielded a switch fluorescence ratio of 1.33 ± 0.29. Work on TTTTTAATAG yielded a switch fluorescence ratio of 0.9855 ± 0.002. For TTTTTAATTC, the switch fluorescence ratio was 1.03 ± 0.024. TTTTTACAGT gave a switch fluorescence ratio of 1.02 ± 0.048. Sequence TTTTTACCGT has a switch fluorescence ratio of 1.12 ± 0.088. TTTTTACGGT showed a switch fluorescence ratio of 1.1 ± 0.15. Work on TTTTTAGCTG yielded a switch fluorescence ratio of 1.04 ± 0.058. With TTTTTAGGC the switch fluorescence ratio was 1.01 ± 0.078. For TTTTTAGGCC, the switch fluorescence ratio was 0.999 ± 0.016. TTTTTAGGGA was tested, and the switch fluorescence ratio was 0.99 ± 0.029. For TTTTTAGTCC, the switch fluorescence ratio was 1 ± 0.023. Sequence TTTTTAGTGG has a switch fluorescence ratio of 0.981 ± 0.015. In the case of TTTTTATAAG, the switch fluorescence ratio is reported as 0.994 ± 0.019. Work on TTTTTATAAT yielded a switch fluorescence ratio of 1.01 ± 0.026. TTTTTATATA was tested, and the switch fluorescence ratio was 0.997 ± 0.016. TTTTTATCGT showed a switch fluorescence ratio of 1.02 ± 0.017. With TTTTTATCTA the switch fluorescence ratio was 1.01 ± 0.036. In the case of TTTTTATGAA, the switch fluorescence ratio is reported as 1.011 ± 0.0019. With TTTTTATGCT the switch fluorescence ratio was 0.99 ± 0.035. TTTTTATTCG showed a switch fluorescence ratio of 0.994 ± 0.019. TTTTTCAAGG was tested, and the switch fluorescence ratio was 1.01 ± 0.013. Sequence TTTTTCAATA has a switch fluorescence ratio of 1.01 ± 0.023. Work on TTTTTCAATT yielded a switch fluorescence ratio of 0.982 ± 0.017. Work on TTTTTCACCG yielded a switch fluorescence ratio of 1.07 ± 0.079. For TTTTTCACTT, the switch fluorescence ratio was 1 ± 0.036. TTTTTCAGAT was tested, and the switch fluorescence ratio was 1.03 ± 0.055. In the case of TTTTTCAGTA, the switch fluorescence ratio is reported as 0.981 ± 0.016. Work on TTTTTCATGT yielded a switch fluorescence ratio of 0.997 ± 0.044. Work on TTTTTCCGAG yielded a switch fluorescence ratio of 1.08 ± 0.025. TTTTTCCGCA showed a switch fluorescence ratio of 2.18 ± 0.83. Work on TTTTTCCGGT yielded a switch fluorescence ratio of 1.07 ± 0.13. TTTTTCCGTG gave a switch fluorescence ratio of 0.9819 ± 0.0037. For TTTTTCGGCC, the switch fluorescence ratio was 0.979 ± 0.026. In the case of TTTTTCTACG, the switch fluorescence ratio is reported as 1.2 ± 0.28. TTTTTCTGCT gave a switch fluorescence ratio of 0.9786 ± 0.0051. TTTTTCTTCA showed a switch fluorescence ratio of 1 ± 0.011. For TTTTTGAAT, the switch fluorescence ratio was 1.01 ± 0.021. In the case of TTTTTGACC, the switch fluorescence ratio is reported as 1.008 ± 0.0017. TTTTTGAGCA was tested, and the switch fluorescence ratio was 1.05 ± 0.049. For TTTTTGAT, the switch fluorescence ratio was 0.972 ± 0.022. In the case of TTTTTGATGA, the switch fluorescence ratio is reported as 1.02 ± 0.015. For TTTTTGATTA, the switch fluorescence ratio was 0.986 ± 0.062. Sequence TTTTTGATTT has a switch fluorescence ratio of 1.01 ± 0.036. With TTTTTGCATT the switch fluorescence ratio was 1.038 ± 0.0028. Sequence TTTTTGCCGA has a switch fluorescence ratio of 1.01 ± 0.052. With TTTTTGCCGG the switch fluorescence ratio was 1.01 ± 0.014. In the case of TTTTTGCGAA, the switch fluorescence ratio is reported as 1.033 ± 0.0011. Sequence TTTTTGCGGT has a switch fluorescence ratio of 0.978 ± 0.025. TTTTTGCTGG gave a switch fluorescence ratio of 0.99 ± 0.029. TTTTTGCTTA was tested, and the switch fluorescence ratio was 0.993 ± 0.013. Sequence TTTTTGGAAA has a switch fluorescence ratio of 1.01 ± 0.051. TTTTTGGAGG was tested, and the switch fluorescence ratio was 1 ± 0.034. TTTTTGGATT showed a switch fluorescence ratio of 1 ± 0.032. In the case of TTTTTGGCTA, the switch fluorescence ratio is reported as 1 ± 0.021. In the case of TTTTTGTCCA, the switch fluorescence ratio is reported as 1 ± 0.041. In the case of TTTTTGTCGT, the switch fluorescence ratio is reported as 0.983 ± 0.025. Sequence TTTTTGTTGC has a switch fluorescence ratio of 1.02 ± 0.02. Work on TTTTTTAACG yielded a switch fluorescence ratio of 0.9973 ± 0.0053. In the case of TTTTTTACCC, the switch fluorescence ratio is reported as 1.01 ± 0.028. TTTTTTAGCT was tested, and the switch fluorescence ratio was 1.01 ± 0.055. For TTTTTTATTG, the switch fluorescence ratio was 0.989 ± 0.029. TTTTTTCATA gave a switch fluorescence ratio of 0.9974 ± 0.0093. TTTTTTCCGC showed a switch fluorescence ratio of 1.34 ± 0.35. Work on TTTTTTCCTT yielded a switch fluorescence ratio of 1.01 ± 0.034. Work on TTTTTTCGAA yielded a switch fluorescence ratio of 0.998 ± 0.032. With TTTTTTCGAG the switch fluorescence ratio was 1 ± 0.05. For TTTTTTCGCG, the switch fluorescence ratio was 1 ± 0.016. With TTTTTTCTGA the switch fluorescence ratio was 1.01 ± 0.028. TTTTTTCTGT was tested, and the switch fluorescence ratio was 1.01 ± 0.029. TTTTTTCTTT was tested, and the switch fluorescence ratio was 1.01 ± 0.033. TTTTTTGAAC showed a switch fluorescence ratio of 1.01 ± 0.03. TTTTTTGAT was tested, and the switch fluorescence ratio was 1.01 ± 0.032. In the case of TTTTTTGCAA, the switch fluorescence ratio is reported as 1.06 ± 0.061. TTTTTTGCG showed a switch fluorescence ratio of 1.01 ± 0.063. TTTTTTGGAC gave a switch fluorescence ratio of 1.01 ± 0.045. Sequence TTTTTTGGCG has a switch fluorescence ratio of 1.02 ± 0.15. With TTTTTTGGTT the switch fluorescence ratio was 0.997 ± 0.026. With TTTTTTGTAA the switch fluorescence ratio was 1.01 ± 0.036. With TTTTTTGTAG the switch fluorescence ratio was 1.01 ± 0.016. TTTTTTTAAG showed a switch fluorescence ratio of 1 ± 0.018. With TTTTTTTCTT the switch fluorescence ratio was 0.994 ± 0.024. TTTTTTTGCA was tested, and the switch fluorescence ratio was 1 ± 0.024. TTTTTTTGTT was tested, and the switch fluorescence ratio was 1 ± 0.034.
